We go through 18 substances from the supplement of paper PMC5998384.

In series [1] the test system is HeLa Kyoto. Briefly: melting temperature (median over replicates), in situ; higher = more thermally stable.
The test system of series [2] is HeLa Kyoto. Briefly: thermal stability score vs G1/S (z-score of summed log2 fold changes over temperatures); higher = more thermally stable than in G1/S.
The mark [3] stands for this setting: cell cycle stage: early G1 (4.5 h after nocodazole release).
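Wherever melting temperature (median over replicates), in situ is given: HeLa Kyoto cells synchronized by double thymidine or nocodazole block, proteins quantified by TMT10plex mass spectrometry, three independent biological replicates.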
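Wherever thermal stability score vs G1/S (z-score of summed log2 fold changes over temperatures) is given: synchronized HeLa Kyoto cells, proteins quantified by TMT10plex mass spectrometry, three biological replicates, mitosis taken 0.5 h after nocodazole release, G1/S directly after double thymidine block.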

Chain of UBE2V1 (chain, as listed by the source): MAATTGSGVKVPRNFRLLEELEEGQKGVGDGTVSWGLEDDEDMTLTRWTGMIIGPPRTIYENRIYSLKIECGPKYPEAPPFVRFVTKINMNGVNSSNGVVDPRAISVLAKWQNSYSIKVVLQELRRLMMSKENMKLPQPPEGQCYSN

As for ITM2B, the melting temperature in the series with HeLa Kyoto [1] (cell cycle stage: G1/S) worked out at 55.2 °C; in the series on HeLa Kyoto [1] (cell cycle stage: mitosis), 54.7 °C. The thermal stability score in the series with HeLa Kyoto [2] (setting [3]) was determined as 5.19; with HeLa Kyoto [2] (cell cycle stage: mitosis), 0.613.
The matching figures for “MAAACGPGAAGYCLLLGLHLFLLTAGPALGWNDPDRMLLRDVKALTLHYDRYTTSRRLDPIPQLKCVGGTAGCDSYTPKVIQCQNKGWDGYDVQWECKTDLDIAYKFGKTVVSCEGYESSEDQYVLRGSCGLEYNLDYTELGLQKLKESGKQHGFASFSDYYYKWSSADSCNMSGLITIVVLLGIAFVVYKLFLSDGQYSPPPYSEYPPFSHRYQRFTNSAGPPPPGFKSEFTGPQNTGHGATSGFGSAFTGQQGYENSGPGFWTGLGTGGILGYLFGSNRAATPFSDSWYYPSYPPSYPGTWNRAYSPLHGGSGSYSVCSNSDTKTRTASGYGGTRRR [SARAF]”: 52 °C, 53.3 °C, -0.125 and 0.434.
Regarding “MAARRRRSTGGGRARALNESKRVNNGNTAPEDSSPAKKTRRCQRQESKKMPVAGGKANKDRTEDKQDGMPGRSWASKRVSESVKALLLKGKAPVDPECTAKVGKAHVYCEGNDVYDVMLNQTNLQFNNNKYYLIQLLEDDAQRNFSVWMRWGRVGKMGQHSLVACSGNLNKAKEIFQKKFLDKTKNNWEDREKFEKVPGKYDMLQMDYATNTQDEEETKKEESLKSPLKPESQLDLRVQELIKLICNVQAMEEMMMEMKYNTKKAPLGKLTVAQIKAGYQSLKKIEDCIRAGQHGRALMEACNEFYTRIPHDFGLRTPPLIRTQKELSEKIQLLEALGDIEIAIKLVKTELQSPEHPLDQHYRNLHCALRPLDHESYEFKVISQYLQSTHAPTHSDYTMTLLDLFEVEKDGEKEAFREDLHNRMLLWHGSRMSNWVGILSHGLRIAPPEAPITGYMFGKGIYFADMSSKSANYCFASRLKNTGLLLLSEVALGQCNELLEANPKAEGLLQGKHSTKGLGKMAPSSAHFVTLNGSTVPLGPASDTGILNPDGYTLNYNEYIVYNPNQVRMRYLLKVQFNFLQLW [PARP2]”, the melting temperature with HeLa Kyoto [1] (cell cycle stage: G1/S) is 47.1 °C; in the series on HeLa Kyoto [1] (cell cycle stage: mitosis), 50.5 °C. In addition, the thermal stability score worked out at 1.04 with HeLa Kyoto [2] (setting [3]) and 1.69 in the series with HeLa Kyoto [2] (cell cycle stage: mitosis).
The substance “MAASGPGCRSWCLCPEVPSATFFTALLSLLVSGPRLFLLQQPLAPSGLTLKSEALRNWQVYRLVTYIFVYENPISLLCGAIIIWRFAGNFERTVGTVRHCFFTVIFAIFSAIIFLSFEAVSSLSKLGEVEDARGFTPVAFAMLGVTTVRSRMRRALVFGMVVPSVLVPWLLLGASWLIPQTSFLSNVCGLSIGLAYGLTYCYSIDLSERVALKLDQTFPFSLMRRISVFKYVSGSSAERRAAQSRKLNPVPGSYPTQSCHPHLSPSHPVSQTQHASGQKLASWPSCTPGHMPTLPPYQPASGLCYVQNHFGPNPTSSSVYPASAGTSLGIQPPTPVNSPGTVYSGALGTPGAAGSKESSRVPMP [RHBDD2]” registered a melting temperature with HeLa Kyoto [1] (cell cycle stage: mitosis) of 52.5 °C. Moreover, the results for the thermal stability score in the series with HeLa Kyoto [2] (setting [3]) and in the series with HeLa Kyoto [2] (cell cycle stage: mitosis) were -1.05 and -1.48, respectively.
Turning to “MAFLGLFSLLVLQSMATGATFPEEAIADLSVNMYNRLRATGEDENILFSPLSIALAMGMMELGAQGSTQKEIRHSMGYDSLKNGEEFSFLKEFSNMVTAKESQYVMKIANSLFVQNGFHVNEEFLQMMKKYFNAAVNHVDFSQNVAVANYINKWVENNTNNLVKDLVSPRDFDAATYLALINAVYFKGNWKSQFRPENTRTFSFTKDDESEVQIPMMYQQGEFYYGEFSDGSNEAGGIYQVLEIPYEGDEISMMLVLSRQEVPLATLEPLVKAQLVEEWANSVKKQKVEVYLPRFTVEQEIDLKDVLKALGITEIFIKDANLTGLSDNKEIFLSKAIHKSFLEVNEEGSEAAAVSGMIAISRMAVLYPQVIVDHPFFFLIRNRRTGTILFMGRVMHPETMNTSGHDFEEL [SERPINI1]”, the melting temperature in the series with HeLa Kyoto [1] (cell cycle stage: G1/S) came out at 57 °C; in the series with HeLa Kyoto [1] (cell cycle stage: mitosis) it was 57.8 °C. The thermal stability score in the series on HeLa Kyoto [2] (setting [3]) was 0.548; in the series on HeLa Kyoto [2] (cell cycle stage: mitosis), 1.27.
Regarding “MLLATLLLLLLGGALAHPDRIIFPNHACEDPPAVLLEVQGTLQRPLVRDSRTSPANCTWLILGSKEQTVTIRFQKLHLACGSERLTLRSPLQPLISLCEAPPSPLQLPGGNVTITYSYAGARAPMGQGFLLSYSQDWLMCLQEEFQCLNHRCVSAVQRCDGVDACGDGSDEAGCSSDPFPGLTPRPVPSLPCNVTLEDFYGVFSSPGYTHLASVSHPQSCHWLLDPHDGRRLAVRFTALDLGFGDAVHVYDGPGPPESSRLLRSLTHFSNGKAVTVETLSGQAVVSYHTVAWSNGRGFNATYHVRGYCLPWDRPCGLGSGLGAGEGLGERCYSEAQRCDGSWDCADGTDEEDCPGCPPGHFPCGAAGTSGATACYLPADRCNYQTFCADGADERRCRHCQPGNFRCRDEKCVYETWVCDGQPDCADGSDEWDCSYVLPRKVITAAVIGSLVCGLLLVIALGCTCKLYAIRTQEYSIFAPLSRMEAEIVQQQAPPSYGQLIAQGAIPPVEDFPTENPNDNSVLGNLRSLLQILRQDMTPGGGPGARRRQRGRLMRRLVRRLRRWGLLPRTNTPARASEARSQVTPSAAPLEALDGGTGPAREGGAVGGQDGEQAPPLPIKAPLPSASTSPAPTTVPEAPGPLPSLPLEPSLLSGVVQALRGRLLPSLGPPGPTRSPPGPHTAVLALEDEDDVLLVPLAEPGVWVAEAEDEPLLT [LRP10]”, in the series on HeLa Kyoto [1] (cell cycle stage: G1/S), the melting temperature worked out at 54.7 °C.
On to “MNQENPPPYPGPGPTAPYPPYPPQPMGPGPMGGPYPPPQGYPYQGYPQYGWQGGPQEPPKTTVYVVEDQRRDELGPSTCLTACWTALCCCCLWDMLT [CYSTM1]”, for which the melting temperature stood at 59 °C with HeLa Kyoto [1] (cell cycle stage: G1/S) and 52.8 °C in the series on HeLa Kyoto [1] (cell cycle stage: mitosis).
The matching figures for “MQPPPPGPLGDCLRDWEDLQQDFQNIQETHRLYRLKLEELTKLQNNCTSSITRQKKRLQELALALKKCKPSLPAEAEGAAQELENQMKERQGLFFDMEAYLPKKNGLYLSLVLGNVNVTLLSKQAKFAYKDEYEKFKLYLTIILILISFTCRFLLNSRVTDAAFNFLLVWYYCTLTIRESILINNGSRIKGWWVFHHYVSTFLSGVMLTWPDGLMYQKFRNQFLSFSMYQSFVQFLQYYYQSGCLYRLRALGERHTMDLTVEGFQSWMWRGLTFLLPFLFFGHFWQLFNALTLFNLAQDPQCKEWQVLMCGFPFLLLFLGNFFTTLRVVHHKFHSQRHGSKKD [TMEM120A]”: 54.2 °C and 53.4 °C.
For “MQPPPPGPLGDCLRDWEDLQQDFQNIQETHRLYRLKLEELTKLQNNCTSSITRQKKRLQELALALKKCKPSLPAEAEGAAQELENQMKERQGLFFDMEAYLPKKNGLYLSLVLGNVNVTLLSKQAKFAYKDEYEKFKLYLTIILILISFTCRFLLNSRVTDAAFNFLLVWYYCTLTIRESILINNGSRIKGWWVFHHYVSTFLSGVMLTWPDGLMYQKFRNQFLSFSMYQSFVQFLQYYYQSGCLYRLRALGERHTMDLTVEGFQSWMWRGLTFLLPFLFFGHFWQLFNALTLFNLAQDPQCKEWQVLMCGFPFLLLFLGNFFTTLRVVHHKFHSQRHGSKKD [TMPIT]”, in that order: 54.2 °C and 53.4 °C.
For “MRRAGLGEGVPPGNYGNYGYANSGYSACEEENERLTESLRSKVTAIKSLSIEIGHEVKTQNKLLAEMDSQFDSTTGFLGKTMGKLKILSRGSQTKLLCYMMLFSLFVFFIIYWIIKLR [BET1]”, in that order: 54.7 °C and 54.9 °C.
In the series on HeLa Kyoto [1] (cell cycle stage: mitosis), “MSPLSAARAALRVYAVGAAVILAQLLRRCRGGFLEPVFPPRPDRVAIVTGGTDGIGYSTAKHLARLGMHVIIAGNNDSKAKQVVSKIKEETLNDKVEFLYCDLASMTSIRQFVQKFKMKKIPLHVLINNAGVMMVPQRKTRDGFEEHFGLNYLGHFLLTNLLLDTLKESGSPGHSARVVTVSSATHYVAELNMDDLQSSACYSPHAAYAQSKLALVLFTYHLQRLLAAEGSHVTANVVDPGVVNTDVYKHVFWATRLAKKLLGWLLFKTPDEGAWTSIYAAVTPELEGVGGHYLYNEKETKSLHVTYNQKLQQQLWSKSCEMTGVLDVTL [DHRSX]” registered a melting temperature of 52.9 °C.
As for “MSRFFTTGSDSESESSLSGEELVTKPVGGNYGKQPLLLSEDEEDTKRVVRSAKDKRFEELTNLIRTIRNAMKIRDVTKCLEEFELLGKAYGKAKSIVDKEGVPRFYIRILADLEDYLNELWEDKEGKKKMNKNNAKALSTLRQKIRKYNRDFESHITSYKQNPEQSADEDAEKNEEDSEGSSDEDEDEDGVSAATFLKKKSEAPSGESRKFLKKMDDEDEDSEDSEDDEDWDTGSTSSDSDSEEEEGKQTALASRFLKKAPTTDEDKKAAEKKREDKAKKKHDRKSKRLDEEEEEDNEGGEWERVRGGVPLVKEKPKMFAKGTEITHAVVIKKLNEILQARGKKGTDRAAQIELLQLLVQIAAENNLGEGVIVKIKFNIIASLYDYNPNLATYMKPEMWGKCLDCINELMDILFANPNIFVGENILEESENLHNADQPLRVRGCILTLVERMDEEFTKIMQNTDPHSQEYVEHLKDEAQVCAIIERVQRYLEEKGTTEEVCRIYLLRILHTYYKFDYKAHQRQLTPPEGSSKSEQDQAENEGEDSAVLMERLCKYIYAKDRTDRIRTCAILCHIYHHALHSRWYQARDLMLMSHLQDNIQHADPPVQILYNRTMVQLGICAFRQGLTKDAHNALLDIQSSGRAKELLGQGLLLRSLQERNQEQEKVERRRQVPFHLHINLELLECVYLVSAMLLEIPYMAAHESDARRRMISKQFHHQLRVGERQPLLGPPESMREHVVAASKAMKMGDWKTCHSFIINEKMNGKVWDLFPEADKVRTMLVRKIQEESLRTYLFTYSSVYDSISMETLSDMFELDLPTVHSIISKMIINEELMASLDQPTQTVVMHRTEPTAQQNLALQLAEKLGSLVENNERVFDHKQGTYGGYFRDQKDGYRKNEGYMRRGGYRQQQSQTAY [EIF3CL]”, the melting temperature was determined as 49 °C in the series on HeLa Kyoto [1] (cell cycle stage: G1/S) and 48.9 °C in the series on HeLa Kyoto [1] (cell cycle stage: mitosis).
For “MSSKRTKTKTKKRPQRATSNVFAMFDQSQIQEFKEAFNMIDQNRDGFIDKEDLHDMLASLGKNPTDEYLDAMMNEAPGPINFTMFLTMFGEKLNGTDPEDVIRNAFACFDEEATGTIQEDYLRELLTTMGDRFTDEEVDELYREAPIDKKGNFNYIEFTRILKHGAKDKDD [MYL12A]”, in that order: 54 °C and 52.7 °C.
As for “MSTRKRRGGAINSRQAQKRTREATSTPEISLEAEPIELVETAGDEIVDLTCESLEPVVVDLTHNDSVVIVDERRRPRRNARRLPQDHADSCVVSSDDEELSRDRDVYVTTHTPRNARDEGATGLRPSGTVSCPICMDGYSEIVQNGRLIVSTECGHVFCSQCLRDSLKNANTCPTCRKKINHKRYHPIYI [RNF4]”, the melting temperature in the series with HeLa Kyoto [1] (cell cycle stage: G1/S) turned out to be 53.2 °C.
In the series on HeLa Kyoto [1] (cell cycle stage: mitosis), “MTVKTEAAKGTLTYSRMRGMVAILIAFMKQRRMGLNDFIQKIANNSYACKHPEVQSILKISQPQEPELMNANPSPPPSPSQQINLGPSSNPHAKPSDFHFLKVIGKGSFGKVLLARHKAEEVFYAVKVLQKKAILKKKEEKHIMSERNVLLKNVKHPFLVGLHFSFQTADKLYFVLDYINGGELFYHLQRERCFLEPRARFYAAEIASALGYLHSLNIVYRDLKPENILLDSQGHIVLTDFGLCKENIEHNSTTSTFCGTPEYLAPEVLHKQPYDRTVDWWCLGAVLYEMLYGLPPFYSRNTAEMYDNILNKPLQLKPNITNSARHLLEGLLQKDRTKRLGAKDDFMEIKSHVFFSLINWDDLINKKITPPFNPNVSGPNDLRHFDPEFTEEPVPNSIGKSPDSVLVTASVKEAAEAFLGFSYAPPTDSFL [SGK1]” displayed a melting temperature of 48.3 °C.
As for “MVGGGGVGGGLLENANPLIYQRSGERPVTAGEEDEQVPDSIDAREIFDLIRSINDPEHPLTLEELNVVEQVRVQVSDPESTVAVAFTPTIPHCSMATLIGLSIKVKLLRSLPQRFKMDVHITPGTHASEHAVNKQLADKERVAAALENTHLLEVVNQCLSARS [FAM96B]”, the melting temperature in the series on HeLa Kyoto [1] (cell cycle stage: G1/S) worked out at 50.3 °C; with HeLa Kyoto [1] (cell cycle stage: mitosis), 52.7 °C.
The matching figures for TPK1: 56.3 °C and 55.6 °C.
As for UBE2V1, the melting temperature in the series with HeLa Kyoto [1] (cell cycle stage: G1/S) stood at 54.2 °C.
